As a reminder, the Kd is the concentration at which binding is half-saturated.

The target in assay [1] is T1, β2-Microglobulin (β2M) (Homo sapiens, UniProt P61769).
T1 construct: β2-microglobulin, human (the title says anti-human β2-microglobulin VHHs); Probably the mature protein without the signal peptide (surmised); also called antigen β2M; human β2-microglobulin; source: expressed and purified as previously described [27]
Put plainly: SPR; Biacore T200; β2M immobilized on a CM5 chip to 150 RU; 2-fold serial diluted VHH at 30 μL/min in HBS-EP+; 25 °C; 1:1 binding model; VHH samples after incubation with NHS-Fluo at molar ratio 0 (negative control), 1, 5 or 20 and ultrafiltration. Conditions: both partners purified. (In SPR one partner is held on a chip, and binding of the other changes the refractive index at the surface.)

Assay [2] concerns the target T2, BSA (Bos taurus, UniProt P02769).
T2 construct: BSA (bovine serum albumin); also called negative control - BSA
In words: laser scanning confocal fluorescence imaging of protein-coated beads; β2M or BSA coupled to CNBr-activated Sepharose 4 Fast Flow beads; incubated with labeled NB-1 (10 μg/mL in PBS) 5 min at room temperature; washed five times with PBS; FV1000 microscope. The settings on record: both partners purified.

T2 sequence (P02769 25-607): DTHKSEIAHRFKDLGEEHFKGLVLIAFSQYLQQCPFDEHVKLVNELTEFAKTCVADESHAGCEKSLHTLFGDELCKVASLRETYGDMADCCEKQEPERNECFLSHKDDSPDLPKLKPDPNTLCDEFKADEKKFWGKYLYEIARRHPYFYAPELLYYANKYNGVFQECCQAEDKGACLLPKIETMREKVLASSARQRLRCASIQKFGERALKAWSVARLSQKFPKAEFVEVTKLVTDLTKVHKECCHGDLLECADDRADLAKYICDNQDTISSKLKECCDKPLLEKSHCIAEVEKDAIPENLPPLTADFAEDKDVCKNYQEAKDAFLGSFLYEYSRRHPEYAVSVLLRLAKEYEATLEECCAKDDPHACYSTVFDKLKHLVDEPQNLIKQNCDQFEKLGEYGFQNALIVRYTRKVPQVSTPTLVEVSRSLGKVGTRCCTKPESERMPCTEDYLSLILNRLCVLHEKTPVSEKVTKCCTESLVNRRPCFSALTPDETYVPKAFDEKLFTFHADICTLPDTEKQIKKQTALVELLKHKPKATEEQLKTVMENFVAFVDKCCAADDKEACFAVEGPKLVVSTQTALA
T1 sequence (P61769 21-119): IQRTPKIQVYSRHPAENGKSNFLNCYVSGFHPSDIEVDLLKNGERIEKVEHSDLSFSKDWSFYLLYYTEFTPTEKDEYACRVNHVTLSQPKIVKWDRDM

B1: NB-1 modified by a 20 fold amount of NHS-Fluo (VHH)
VHH: QVQLVESGGGLVQAGGSLRLSCAASGSTLDSYYIGWFRQAPGKEREGVSCISSSGNSIRYVDSVKDRFTISRDNGKNTAYLHINSLRPEDTAVYYCAASRRGRKPGLPCSLVRERYAYWGQGTQVTVSS
notes: VHH domain as in m2 (NB-1); flexible (G4S)4 linker between the VHH domain and the 6xHis-tag, written out from the printed formula; also called labeled NB-1; modified NB-1; source: E. coli SHuffle T7, purified (HisTrap HP), then modified with NHS-Fluo (2 h, 4 °C), ultrafiltration
Regarding B1, in assay [1], the dissociation constant Kd turned out to be 297 nM. In addition, the binding result in assay [2] is listed as “no binding (tested: 10 μg/mL)”.

Source of the values: paper PMC6680903 (Molecules, 2019).
